# Reference: paper PMC8933513 (2022)
# Several values for one entry are separate records, joined by “and”; a condition that tells them apart may be missing. Identical values can stand only once.
# Key:
# [1] = target: human aminopeptidase N ectodomain, wild type (human) (UniProt P15144); assay: SPR; BIAcore X-100, room temperature; hAPN/pAPN WT or mutant immobilised on CM5 chips via amine coupling; serially diluted PDCoV RBD WT or mutant flowed over in HEPES buffer (0.01 M HEPES, 0.15 M NaCl, 0.5% surfactant P20, 3 mM EDTA, pH 7.4); steady-state affinity model; each of two experiments listed
# Sequence of human aminopeptidase N ectodomain, wild type (human) (P15144 62-963): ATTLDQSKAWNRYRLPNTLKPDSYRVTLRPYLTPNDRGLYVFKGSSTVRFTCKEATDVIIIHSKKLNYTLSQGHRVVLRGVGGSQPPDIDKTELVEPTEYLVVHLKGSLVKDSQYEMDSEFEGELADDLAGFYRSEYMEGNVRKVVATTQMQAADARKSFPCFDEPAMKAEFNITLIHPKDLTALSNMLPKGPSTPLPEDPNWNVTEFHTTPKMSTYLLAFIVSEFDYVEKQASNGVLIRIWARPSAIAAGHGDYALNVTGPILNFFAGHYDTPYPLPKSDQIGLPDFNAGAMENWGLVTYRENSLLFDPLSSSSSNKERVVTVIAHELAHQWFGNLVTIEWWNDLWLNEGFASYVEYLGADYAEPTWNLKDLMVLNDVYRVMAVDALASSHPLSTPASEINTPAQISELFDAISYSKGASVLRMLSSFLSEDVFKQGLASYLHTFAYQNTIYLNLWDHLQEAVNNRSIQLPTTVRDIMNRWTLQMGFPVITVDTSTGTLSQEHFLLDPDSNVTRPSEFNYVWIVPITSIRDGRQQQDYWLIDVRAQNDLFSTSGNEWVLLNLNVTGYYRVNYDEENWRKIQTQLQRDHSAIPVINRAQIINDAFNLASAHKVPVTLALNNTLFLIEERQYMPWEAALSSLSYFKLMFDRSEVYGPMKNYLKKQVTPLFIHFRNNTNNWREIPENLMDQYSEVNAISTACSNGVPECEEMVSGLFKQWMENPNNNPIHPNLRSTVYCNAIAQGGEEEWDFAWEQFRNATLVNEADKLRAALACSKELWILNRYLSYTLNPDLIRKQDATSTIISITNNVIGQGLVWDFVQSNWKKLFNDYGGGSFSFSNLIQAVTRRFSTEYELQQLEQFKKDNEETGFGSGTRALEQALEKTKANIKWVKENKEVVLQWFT
# [2] = target: porcine aminopeptidase N ectodomain, wild type (pig) (UniProt P15145); assay: as above
# Sequence of porcine aminopeptidase N ectodomain, wild type (pig) (P15145 58-961): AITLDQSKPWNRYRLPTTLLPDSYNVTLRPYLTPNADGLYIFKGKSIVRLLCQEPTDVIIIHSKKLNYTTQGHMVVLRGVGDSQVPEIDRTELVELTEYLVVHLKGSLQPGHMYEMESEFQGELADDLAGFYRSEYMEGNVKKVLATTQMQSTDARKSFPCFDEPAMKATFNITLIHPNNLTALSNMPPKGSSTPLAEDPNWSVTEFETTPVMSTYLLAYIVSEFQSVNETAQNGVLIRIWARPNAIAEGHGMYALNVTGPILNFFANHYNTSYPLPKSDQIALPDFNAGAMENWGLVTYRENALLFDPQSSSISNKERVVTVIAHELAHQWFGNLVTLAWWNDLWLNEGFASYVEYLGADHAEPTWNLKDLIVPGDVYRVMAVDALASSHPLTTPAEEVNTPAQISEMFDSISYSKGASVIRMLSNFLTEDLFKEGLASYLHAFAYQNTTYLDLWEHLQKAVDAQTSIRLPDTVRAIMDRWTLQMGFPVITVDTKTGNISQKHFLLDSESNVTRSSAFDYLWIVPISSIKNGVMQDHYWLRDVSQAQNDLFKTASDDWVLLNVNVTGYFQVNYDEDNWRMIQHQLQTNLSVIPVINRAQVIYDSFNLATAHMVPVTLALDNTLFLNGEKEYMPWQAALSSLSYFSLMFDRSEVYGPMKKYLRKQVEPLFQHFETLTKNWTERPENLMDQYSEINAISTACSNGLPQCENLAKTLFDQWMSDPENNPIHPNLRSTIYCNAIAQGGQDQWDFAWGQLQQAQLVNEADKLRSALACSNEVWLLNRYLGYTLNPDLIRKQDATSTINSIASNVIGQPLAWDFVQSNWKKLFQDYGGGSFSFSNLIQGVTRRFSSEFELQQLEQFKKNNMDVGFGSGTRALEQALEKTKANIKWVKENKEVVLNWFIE
# [3] = target: hAPN ectodomain Y316A mutant (human) (UniProt P15144); assay: SPR; BIAcore X-100, room temperature; hAPN/pAPN WT or mutant immobilised on CM5 chips by amine coupling; serially diluted PDCoV RBD WT or mutant flowed over in HEPES buffer (0.01 M HEPES, 0.15 M NaCl, 0.5% surfactant P20, 3 mM EDTA, pH 7.4); steady-state affinity model
# Sequence of hAPN ectodomain Y316A mutant (human) (P15144 62-963 Y316A): as the sequence (P15144 62-963) above, with Y255A counted along it
# [4] = target: human aminopeptidase N (hAPN) ectodomain, residues 62-963, wild type (UniProt P15144); assay: as above
# Sequence of human aminopeptidase N (hAPN) ectodomain, residues 62-963, wild type (P15144 62-963): as the sequence (P15144 62-963) above
# [5] = target: porcine aminopeptidase N (pAPN) ectodomain, residues 58-961, wild type (pig) (UniProt P15145); assay: as above
# Sequence of porcine aminopeptidase N (pAPN) ectodomain, residues 58-961, wild type (pig) (P15145 58-961): as the sequence (P15145 58-961) above
# [6] = target: hAPN ectodomain E742A mutant (human) (UniProt P15144); assay: as above
# Sequence of hAPN ectodomain E742A mutant (human) (P15144 62-963 E742A): as the sequence (P15144 62-963) above, with E681A counted along it
# [7] = target: hAPN ectodomain K379A mutant (human) (UniProt P15144); assay: as above
# Sequence of hAPN ectodomain K379A mutant (human) (P15144 62-963 K379A): as the sequence (P15144 62-963) above, with K318A counted along it
# [8] = target: porcine aminopeptidase N (pAPN) ectodomain, residues 58-961, wild type (UniProt P15145); assay: SPR; details: parent: 44.24 ± 2.21 µM
# Sequence of porcine aminopeptidase N (pAPN) ectodomain, residues 58-961, wild type (P15145 58-961): as the sequence (P15145 58-961) above
# [9] = target: human aminopeptidase N (hAPN) ectodomain, residues 62-963, wild type (UniProt P15144); assay: SPR; details: parent: 3.71 ± 0.05 µM
# [10] = target: human aminopeptidase N ectodomain, wild type (human) (UniProt P15144); assay: SPR; hAPN/pAPN WT or mutant immobilised on CM5 chips by amine coupling; serially diluted PDCoV RBD WT or mutant flowed over; BIAcore X-100, room temperature; 0.01 M HEPES, 0.15 M NaCl, 0.5% surfactant P20, 3 mM EDTA, pH 7.4; steady-state affinity model
# [11] = target: porcine aminopeptidase N ectodomain, wild type (pig) (UniProt P15145); assay: as above
# [12] = target: human aminopeptidase N ectodomain, wild type (human) (UniProt P15144); assay: as above; remark: listed apart in the source
# [13] = target: porcine aminopeptidase N ectodomain, wild type (pig) (UniProt P15145); assay: as above; remark: listed apart in the source
# [14] = target: human aminopeptidase N ectodomain H789A (human) (UniProt P15144); assay: as above
# Sequence of human aminopeptidase N ectodomain H789A (human) (P15144 62-963 H789A): as the sequence (P15144 62-963) above, with H728A counted along it
# [15] = target: human aminopeptidase N ectodomain E742A (human) (UniProt P15144); assay: as above
# Sequence of human aminopeptidase N ectodomain E742A (human) (P15144 62-963 E742A): as the sequence (P15144 62-963) above, with E681A counted along it
# [16] = target: porcine aminopeptidase N ectodomain W424A (pig) (UniProt P15145); assay: as above
# Sequence of porcine aminopeptidase N ectodomain W424A (pig) (P15145 58-961 W424A): as the sequence (P15145 58-961) above, with W367A counted along it
# [17] = target: human aminopeptidase N ectodomain W429A (human) (UniProt P15144); assay: as above
# Sequence of human aminopeptidase N ectodomain W429A (human) (P15144 62-963 W429A): as the sequence (P15144 62-963) above, with W368A counted along it
# [18] = target: human aminopeptidase N ectodomain K379A (human) (UniProt P15144); assay: as above
# Sequence of human aminopeptidase N ectodomain K379A (human) (P15144 62-963 K379A): as the sequence (P15144 62-963) above, with K318A counted along it
# [19] = target: porcine aminopeptidase N ectodomain E421A (pig) (UniProt P15145); assay: as above
# Sequence of porcine aminopeptidase N ectodomain E421A (pig) (P15145 58-961 E421A): as the sequence (P15145 58-961) above, with E364A counted along it
# [20] = target: human aminopeptidase N ectodomain Y316A (human) (UniProt P15144); assay: as above
# Sequence of human aminopeptidase N ectodomain Y316A (human) (P15144 62-963 Y316A): as the sequence (P15144 62-963) above, with Y255A counted along it
# [21] = target: human aminopeptidase N ectodomain E745A (human) (UniProt P15144); assay: as above
# Sequence of human aminopeptidase N ectodomain E745A (human) (P15144 62-963 E745A): as the sequence (P15144 62-963) above, with E684A counted along it
# [22] = target: human aminopeptidase N ectodomain E426A (human) (UniProt P15144); assay: as above
# Sequence of human aminopeptidase N ectodomain E426A (human) (P15144 62-963 E426A): as the sequence (P15144 62-963) above, with E365A counted along it
substance,measurement,setting,value
PDCoV RBD E320A (domain or fragment),Kd,[1],135 µM and 188 µM
same,Kd,[2],279 µM and 220 µM
PDCoV RBD F318A (domain or fragment),Kd,[1],112 µM and 154 µM
same,Kd,[2],817 µM and 511 µM
PDCoV RBD N397A (domain or fragment),Kd,[1],3.35 µM and 3.62 µM
same,Kd,[2],34 µM and 53.8 µM
PDCoV RBD R322A (domain or fragment),Kd,[1],256 µM and 335 µM
same,Kd,[2],454 µM and 553 µM
PDCoV RBD R357A (domain or fragment),Kd,[1],199 µM and 232 µM
same,Kd,[2],27.7 µM and 60.5 µM
PDCoV RBD W396A (domain or fragment),Kd,[1],88000 µM
PDCoV RBD Y398A (domain or fragment),Kd,[1],309 µM and 730 µM
"PDCoV spike (S) protein receptor binding domain (RBD), residues 300-419, wild type (domain or fragment)",fold decrease in affinity against wild-type hAPN,[3],10 fold
same,Kd,[4],1 µM
same,fold lower affinity than to hAPN,[5],10 fold
same,fold decrease in affinity against wild-type hAPN,[6],4 fold
same,Kd,[7],100 µM
"PDCoV spike (S) protein receptor binding domain (RBD), residues 300-419, wild type E320A",Kd,[8],249 µM
same,Kd,[9],161 µM
"PDCoV spike (S) protein receptor binding domain (RBD), residues 300-419, wild type F318A",Kd,[8],664 µM
same,Kd,[9],133 µM
"PDCoV spike (S) protein receptor binding domain (RBD), residues 300-419, wild type N397A",Kd,[9],3.49 µM
"PDCoV spike (S) protein receptor binding domain (RBD), residues 300-419, wild type R322A",Kd,[8],504 µM
same,Kd,[9],295 µM
"PDCoV spike (S) protein receptor binding domain (RBD), residues 300-419, wild type R357A",Kd,[9],216 µM
"PDCoV spike (S) protein receptor binding domain (RBD), residues 300-419, wild type Y398A",Kd,[9],520 µM
PDCoV spike protein receptor binding domain E320A (domain or fragment),Kd,[10],135 µM and 188 µM
same,Kd,[11],279 µM and 220 µM
PDCoV spike protein receptor binding domain F318A (domain or fragment),Kd,[10],112 µM and 154 µM
same,Kd,[11],817 µM and 511 µM
PDCoV spike protein receptor binding domain N397A (domain or fragment),Kd,[10],3.35 µM and 3.62 µM
same,Kd,[11],34 µM and 53.8 µM
PDCoV spike protein receptor binding domain R322A (domain or fragment),Kd,[10],256 µM and 335 µM
same,Kd,[11],454 µM and 553 µM
PDCoV spike protein receptor binding domain R357A (domain or fragment),Kd,[10],199 µM and 232 µM
same,Kd,[11],27.7 µM and 60.5 µM
PDCoV spike protein receptor binding domain W396A (domain or fragment),Kd,[12],> 1000 µM
same,Kd,[13],> 1000 µM
same,Kd,[10],88000 µM
PDCoV spike protein receptor binding domain Y398A (domain or fragment),Kd,[13],> 1000 µM
same,Kd,[10],309 µM and 730 µM
"PDCoV spike protein receptor binding domain, wild type (domain or fragment)",Kd,[14],6.47 µM and 6.03 µM
same,Kd,[15],14.3 µM and 13.2 µM
same,Kd,[16],113 µM and 119 µM
same,Kd,[17],158 µM and 97 µM
same,Kd,[18],371 µM and 516 µM
same,Kd,[19],103 µM and 146 µM
same,Kd,[20],35.7 µM and 38.5 µM
same,Kd,[21],3.13 µM and 3 µM
same,Kd,[22],305 µM and 362 µM
same,Kd,[10],3.76 µM and 3.66 µM
same,Kd,[11],42 µM and 46.5 µM
